Laboratory results from the DeepSol protein solubility set.

Assay: soluble on expression in E. coli; label from the status in PepcDB or PDB records

Row | Sequence | soluble on expression in E. coli
1 | MSLQTQLVHELVENQPTKLLIYVKNIRTIRTKKGEQMAFVDGDDTTGSISLTLFPTVFRQLRQSVEKGQVYYVEGKVERSTYNQELQILVQRIEKAQQVETSISDETCFIRITKDVEQTDVFQKMKEVLSRHAGHIPVIVYFEKTGKKIVLNEENWVAHTSASQQQLAYVLGEQNVIFKEGHHHHHH | soluble
2 | MKITVPATSANIGPGFDSVGVAVSKYLTIEVLEPADVWFIEHDLGDIPSDENNLLISTALQVKSDLQPHKLVMASDIPLAR | not soluble
3 | MSHLNYETRLPLGQATIDHFMGLPAHPTKCQATYVWIDGTGEHLRAKTRTINTKPQYLSEYPIWNYDGSSTGQADGLNSDRYLRPVAVFPDPFLGGLNVLVMCDTLDHEMKPTATNHRQMCAELMKKVSDQQPWFGMEQEYLIVDRDEHPLGWPKHGYPAPQGKYYCGIGADRAFGREVVETHYRACLHAGITIFGSNAEVTPGQWEFQIGTCLGIEMGDQLWMARYILHRVAEQFGVCVSLDPKPRVTMGDWNGAGCHTNFSTIDMRRPDGLETIIAAMEGLKKTHSEAMKVYDPNGGHDNLRRLTGRHETSQADQFSWGIANRACSVRIPRQVADEGRGYLEDRRPSSNCDPYLVTAMIVKSVLIN | not soluble
4 | MGSDKIHHHHHHMGNVIVVTSGKGGVGKTTITANLGCALAKLGEKVCLIDADIGLKNLDIVLGLENRIVYTMIDVVNGKVSPQEALVKHKMLKNLYLLPASQIATKEMISPNDMKAIVKELIPHFDYIIIDSPAGIERGFRNAVAPAERVLVVTTPELPAISDADRVIGLLENFGFSDEKINVIINRFKPHMVKKGEMLTTDDIKHTLSLEIIAVIPDSEDIIVASNTGIPVSLNGNSRISKNFENLARRIRGEGVPLENDFVTVSKGLIDTLKDFFSKLKRG | not soluble
5 | MKAVIAKNEEQLKDAFYVREEVFVKEQNVPAEEEIDELENESEHIVVYDGEKPVGAGRWRMKDGYGKLERICVLKSHRSAGVGGIIMKALEKAAADGGASGFILNAQTQAVPFYKKHGYRVLSEKEFLDAGIPHLQMMKD | soluble
6 | MGSHHHHHHDITSLYKKAGSENLYFQGMKFSEECRSAAAEWWEGSFVHPFVQGIGDGTLPIDRFKYYVLQDSYYLTHFAKVQSFGAAYAKDLYTTGRMASHAQGTYEAEMALHREFAELLEISEEERKAFKPSPTAYSFTSHMYRSVLSGNFAEILAALLPCYWLYYEVGEKLLHCDPGHPIYQKWIGTYGGDWFRQQVEEQINRFDELAENSTEEVRAKMKENFVISSYYEYQFWGMAYRKEGWSDSAIKEVEECGASRHNG | soluble
7 | MTTYLIIGANRVGQLVARQLATESATVRLLHDGKETLPSDLATQVTELTGDLTQEATYTAALQDQPIIFSALTGMDVDLAFEALFDAQYHQRLTFQRFVMLSTAGVDQEVTGDLAYPGITDVAEYLKQQRYAAKLVDEAEFPYTILRPVTLADSPRRDPQIIKEGAAVPAGTVSRETVAQVAVSLLQAGGADYQSLAICLEHHHHHH | not soluble
8 | MRKLNNHDVHKRYQDRLEEDVEFTINYELPLSCLWSTIKDFSSDFEEKTEAFFILFKELLRRGHLKLQRDGQIIGHTPEEWEQIFREVWPEYEIEPNPLPGYAPFDIGMWLTVEAPAYAVWIDPEDGSEYWAG | soluble
9 | MELNAVKSSYARWAPIYDKTFGAITNVGRHAAVDYINAHDATELLEVGVGTGLSLPNYRPGLKVTGIDFSEEMLAKARAKVESLGLGHVQSLRQMDARDLDFADASFDVVAAMHIISVVPEPERVMAEMARVCKPGGLIVITNHFARDSGMLARVERFAAPFANLLGWHPDFEISSVLKQPLEHHHHHH | not soluble
10 | MGSDKIHHHHHHMFVWHEYENAAEAAQSLADAVADALQGALDEKGGAVLAVSGGRSPIAFFNALSQKDLDWKNVGITLADERIVPTNHADSNTGLVREYLLKNKAAAAVWIPMVEDGKTETELHPDAVVDYALKHYKQPDVLILGMGNDGHTASIFPKAPQFQTAIDGSAGVALVHTTPVTAPHERISMTLDAIAHTGHVFLAIQGEEKKAVFDQAAQGENREYPISLVLNHQGVNCHVFYAE | not soluble
11 | MIKQVGNTQINPLHRLTCHCGKVELELTLPNGIEKPRRCDCSMCRRRGAIVASVPLSGIRIVQGDDVLKLYQFNTHTAKHFFCSECGIYTHHQRRSDPSEYGYNVGCLEGVNPYELGDIEVMDGVNHPSDRLEHHHHHH | not soluble
12 | MGSDKIHHHHHHMDNPVMSAITSLYPQVQFLQRQAASLLLYQSVLQTDVGIAFQELLQAIRYADADARGSLQAYGNYFHALATRKQNWEDYLVSQILIAENPFSKVTQQQDFKDLPPALISAVKHDLQVLQSLYECNSAVLSQWVQAVAHLPISPVVWYLEQDDMGSETALSLHHLEHWADAVEELATHYQKFGIGLFAQYRALRWQDGEFVGIPYPDPVKLGTLVGYESQQEALLKNTEFLLSGEKALHVLLYGSRGAGKSSLVKALLNEYSHRQLRLLEVSKADLKDLPKIVEQLRGVPQKFIIFVDDLSFEEDDDAFKALKVVLEGNLTARPHNVVVYATSNRRHLIREFFADRPSLKNNEEVHAGDTMQEKLSFSDRFGLTLTFESADQSTYLKIVRHLATQAGISISPEELEYQALQWATRHNGRSGRTAQQFIDFLKADTSVFATNNSILDTQS | not soluble
13 | MSLFITDKRVKESATALNPSMFQGLYLQDQMLKDPTYLPIYGSSELSRLDEFHPSNYFQVNNEGFTPYLVGKGGSQSLIHSLNFAAHMDQLKGKKIVFIVSPQWFIKRGSDEQHFAPNYSALQGLDLAFNDQIDPEIKKKMMKRMLRFKAVQNDAILSELYKAMVNGQTWKVNALKPAAKVYYSMLEKKDLYYSTTESSGPKRYISQSVKDKSWSELNKLADQSGKRHSGSNDFHIDNPVYKKLKPKVPKLKGKNKGRSYAVSPEYGDFEMMLDILKDAGAEPMFVTIPVNGKWYDYTGFPKKGRTDYYKKVNKQIRAKGFQVADFSGHEYDPYFMKDTIHIGWKGWVYVDKAIDEFYKTGKVTSSEGHHHHHH | not soluble
14 | MIRIENLTKKFDRKVLDNITISLPKNRVSVIVGINGSGKTTLLDCIVGLKDATSGKVFIESYSNDSEKFKECIFYIPSEFYLPNYMTGKEYLNFVLSRYRCSDIERIDDFLELFDLKFAGTNLIESYSFGMKKKIQIVAAALANTDYILGDEIFNGLDFETTLLTLELFENLSREVGIVIISHNKLIIERFSENILLMSNGNLTPFLGASENLEKEVISTEKIHEKIKYIKGYHPINRVIY | not soluble
15 | MGSDKIHHHHHHMDIIVVGGGTSGLLSALALEKEGHNVIVFEKESYVGGLCRSEKIDGYSVDIGVHAITMLDNGPLIRLLNKYSRYLPNFRNYGDYYIRTDKLHRIPVSMHEWMTTPVIPNKDKVLITSKIMDLMTMGFTKDASVYDFVKEMGLSSTSVDFFNTIAYFLSGEDLENTPLWRFFTGAGYIPEDDILPFIYKDMKINPLKSTLVKKFGTERIINILNDGFISSIKNGSKKYINKFMTEHRYSTQGYPVGGVQSICNCITYSLRNTQIKNEEVKKITKNGKKYTVKTSEGEYTSDIIVYSAPAITLPKVAKINKIQKNKEKLSNIKFTKSTTVWIGDEKNYFPYLGSEIWIDNPCWASTVSNYDESLAPKGKHLMGFSFVNSKKEDALKTIESKLNLNTDKVDMLYVQETVPEQASCSIGQFFVYPKIDDTFFVVGTDSDPRSMGITRAAYSVEVMLSEFKNIYDTQKETAKK | not soluble
16 | MAHHHHHHMMRRVYAPVFCSVAAARFAATSAAKKYDLFGYEVDTNTAPWIEKIKKCKYYDEAGEVLVNMNVSNCPPDIATYNATLQCIYQSPSKQSTPVDNESKFCAMMDLLEEMQHRNRLKPNEESWTWVMKECVKSGQFRLGYCIQQVMETECKGCPADLVKANEANAQKAKTEGKEHPGHLSQQAGLFDVKVE | not soluble
17 | MGSDKIHHHHHHSLQAQSTVSHNLANVDTVGFKAALANTEAFQIRGKGYPSRIDALHVDQGFDRSQGHQKVTGNPLDVSLQQDRWLAVQSPDGSEAYTRNGELALTANGQLVTANGHAVLDEGGNPMTIPPHQAMEIGSDGSISIIPQGEGPQTMAIVGKMKVVDAPADRLMRRPDGLMRNTSTDPAQAFAVATGKTVNSGMLEGSNVDAAGALVEMIQLQRQFEMQVKIIKNGDDNAQSANSLLRVSG | not soluble
18 | SITDILSAEDIAAALQECQDPDTFEPQKFFQTSGLSKMSASQVKDIFRFIDNDQSGYLDGDELKYFLQKFQSDARELTESETKSLMDAADNDGDGKIGADEFQEMVHS | soluble
